Source: patent publication US20020197702A1
* marks the point of attachment. AMC = Cc1cc(=O)oc2cc(N*)ccc12

Target: membrane-derived caspases
Assay: cell-based or functional assay

## Ac-DEVD-{AMC} [DEVD-amc (Acetyl-Asp-Glu-Val-Asp-aminomethylcoumarin)]
  Km for hydrolysis of DEVD-amc: 10 µM
